Laboratory results from publication PMC8629787 (Cellular and Molecular Life Sciences: CMLS, 2021).

Target: the molecule itself
Assay: SEC

B1: BambL, fucose-binding lectin of Burkholderia ambifaria (recombinant, unlabelled) (natural protein)
chain: not shown
stoichiometry N: 3
